Laboratory results as given in patent US20240084330A1 (BROAD INSTITUTE, published 2024).

Molecular target: the molecule itself
Experiment: self-assembly of E. coli-produced protein; size exclusion and electron microscopy

| Protein | binding result |
| --- | --- |
| MmPNMA3 (mouse PNMA3 produced in E. coli, tags removed) (other, UniProt Q8JZW8 1-466, looked up, Cloned from mouse cDNA into a TwinStrep-SUMO backbone; tags cleaved with SUMO protease before size exclusion) MPLNLLQDWCRGEHLNTQRSMLILGIPEDCSEDEFEETLHEALKHLGRYRIIGRMFRREENAQAFLVELARDFDYALVPREIEGKGGPWEVVVKPPHSDDEFLNRLNHFLEEERRTVSDMNRVLGTHSNHSPTKTTISADFWVWAQTLGAVMQPLLEQMLYRELRVFSGNTISIPGLLAFDSWLEHTTEMLQMWQVPEVEKRRRLMECLRGPALQVVNVLRANNAAITVKECLEALRQVFGSVDNRKIAQLKFCKAYQEPGEKVSSFVVRLETLLQKALEKNAISRKNVNQTRLKRILGGAILSAKLREKLKMLKQRRRPPGFLALVKLFREEEEEWEATRGSERSCYEGLELGPSPSNIGSEERELFVPAFGSVLEERPYQGSRRRRHRRRGQHRKGGVPRDDSQGTRKQNYDTFCYSCGEDGHIRVHCFNPSNRTLVKQKRQAAMEKGNRSWAWEKSHPKPKTK | binds |
| MmPNMA5 (mouse PNMA5 produced in E. coli, tags removed) (other, UniProt Q5DTT8 1-618, looked up, Cloned from mouse cDNA into a TwinStrep-SUMO backbone; tags cleaved with SUMO protease before size exclusion) MAVALLDDWCKGMDLDPKKAVLIVGIPVQYTEAAINDALKEGLPPLCAYKVIGRMFRREDEAKAVLIELPEVVDYTMMPTHIPAEGGAWEVVVKPRSPDDEFMNKLIYFLRDEGRRIVDVAKALGFSTVPTGKIELKNLDQDKPKGLKSLCNNSTCYKKLKVFSGSPFPGPGEESFETWLEEVTELMQLWQVSEREKKQCLLESLRGSALSIMQALWTSNDSLTVEQCLKALKHIFGNKEDSKVLQFRFLQSSQKPAEKVSDYLLRLEPLLQKAVQQSPLSAHSADSIRLKHVLSQVSMTTGLRGKLSLLDQQGCPPTFLELMKLTRDEEEWESTVVVEEQEQVRRDSSACEAANEVVTQAEDSREVSTQTTGEEMTSVKRRRLLWRHSAGEEGQRKESGFWAESEPDEQKPYVRAQESGNERGAWAVSHPNPKEIEAQDSQEFLPVAGNRDTLTKSWGSPDKGTGDMSVAEGQQGQGKAPNFLLARNDPNKQEQIPHSSVTTKWQDRGECQRLKWGASMITRPQGNPDRSWDTSGSQDGEDGCSELRMPTGTEAAQGVEEPATGLSWAEDTSAWEQARLGRETVPRRGGRRIQPVFRIIYTALGEPHEGSTLESFRE | binds |
| MmMOAP1 (mouse MOAP1 produced in E. coli, tags removed) (other, UniProt Q9ERH6 1-352, looked up, Cloned from mouse cDNA into a TwinStrep-SUMO backbone; tags cleaved with SUMO protease before size exclusion; also called modulator of apoptosis 1; Pnma4) MTLRLLEDWCRGMDMNPRKALLVAGIPPTCGVADIEEALQAGLAPLGEHRLLGRMFRRDENKNVALIGLTVETGSALVPKEIPAKGGVWRVIFKPPDTDSDFLCRLNEFLKGEGMTMGELTRVLGNRNDPLGLDPGIMIPEIRAPMLAQALNEALKPTLQYLRYKKLSVFSGRDPPGPGEEEFESWMFHTSQVMKTWQVSDVEKRRRLIESLRGPAFEIIRVLKINNPFITVAECLKTLETIFGIIDNPRALQVKYLTTYQKTDEKLSAYVLRLEPLLQKLVQKGAIEKEVVNQARLDQVIAGAVHKSVRRELGLPEGSPAPGLLQLLTLIKDKEAEEEEVLLQAELEGYCT | binds |
